Test results: paper PMC9273615, “Regulation of AUXIN RESPONSE FACTOR condensation and nucleo-cytoplasmic partitioning” (Nature Communications, 2022)

What was measured:
[1] = biological target: T1, GST-AFF1 (AUXIN RESPONSE FACTOR F-BOX1, At3g49150) (Arabidopsis thaliana, UniProt Q9M3B7 1-630); assay: pull-down; 2 μg GST fusion immobilised on glutathione agarose, mixed with 2 μg His-ASK1, 4 °C, 2 hr; six washes; immunoblot with anti-His and anti-GST; details: both partners purified
T1 construct: AUXIN RESPONSE FACTOR F-BOX1 (AFF1), F-box protein encoded by At3g49150, Arabidopsis thaliana; also called GST-AFF1 recombinant protein; not shown: GST, N-terminal, kept
T1 sequence (looked up): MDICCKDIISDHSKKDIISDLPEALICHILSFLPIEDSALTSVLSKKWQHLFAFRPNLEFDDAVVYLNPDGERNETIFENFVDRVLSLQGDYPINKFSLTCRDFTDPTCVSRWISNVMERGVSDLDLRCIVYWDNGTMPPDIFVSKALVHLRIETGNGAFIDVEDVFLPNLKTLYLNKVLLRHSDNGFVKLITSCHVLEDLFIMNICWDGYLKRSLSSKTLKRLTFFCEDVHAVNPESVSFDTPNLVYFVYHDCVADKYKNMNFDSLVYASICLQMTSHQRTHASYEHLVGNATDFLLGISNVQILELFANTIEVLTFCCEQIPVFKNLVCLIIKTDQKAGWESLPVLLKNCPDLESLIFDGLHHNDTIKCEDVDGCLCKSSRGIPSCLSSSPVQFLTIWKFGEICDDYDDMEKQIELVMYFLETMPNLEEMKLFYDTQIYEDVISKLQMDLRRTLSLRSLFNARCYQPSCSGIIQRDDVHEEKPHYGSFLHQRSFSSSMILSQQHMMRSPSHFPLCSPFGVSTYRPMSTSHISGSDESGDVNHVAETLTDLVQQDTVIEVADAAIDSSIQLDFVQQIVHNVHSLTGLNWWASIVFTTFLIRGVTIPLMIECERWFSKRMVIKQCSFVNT

[2] = biological target: T2, GST-AFF1 (AUXIN RESPONSE FACTOR F-BOX1, At3g49150) (Arabidopsis thaliana (Mouse-ear cress), UniProt Q9M3B7); assay: GST pull-down with immunoblot
T2 chain: T1 sequence (looked up)

binding result [1]: binds
binding result [2]: binds
B1: His-ASK1 (ARABIDOPSIS SKP1-LIKE 1) (natural protein, UniProt Q39255 1-160, looked up)
chain: MSAKKIVLKSSDGESFEVEEAVALESQTIAHMVEDDCVDNGVPLPNVTSKILAKVIEYCKRHVEAAASKAEAVEGAATSDDDLKAWDADFMKIDQATLFELILAANYLNIKNLLDLTCQTVADMIKGKTPEEIRTTFNIKNDFTPEEEEEVRRENQWAFE
notes: ARABIDOPSIS SKP1-LIKE (ASK1), Arabidopsis thaliana; not shown: His, N-terminal, kept
